The experiment relates to iPS cells. Nature of the experiment: Three-dimensional suspension (spinner flask) culture of iPS cells with BMP4, hCG by GONASTICK W. Type of experiment: cell-based, human. The conditions noted are these: for hCG production: Example 1, spinner flask. On the procedure: In GONASTICK W, about 0.5 to 1 mL of the culture supernatant was sampled, and a test strip was soaked therein. After the soaking was completed, the determination surface of the test strip was placed to face upward and allowed to stand until the culture supernatant passed through the determination window and reached the reaction end window. […] The detection sensitivity of the present examination reagent is 25 IU/L, and a blue control line corresponding to an hCG concentration of 1,000 IU/L is printed in advance on the determination window, which can be visually compared with the determination line.
In a case where a line equal to or more blue-colored than the control line was visually observed on the determination line, it was judged as positive (+).
In a case where the line was not visually observed on the determination line, it was determined to be negative (−).
In a case where a line that was less blue-colored than the control line but was visible was visually observed on the determination line, it was determined to be (+/−).
30 mL of an iPS cell medium (StemFit (registered trade name) AK02N: Ajinomoto Co., Inc.) was dispensed into a 30 mL volume spinner flask (ABLE Corporation), and then iPS cells (1.6×10^7 cells/mL) were seeded. BMP4 was not added at the start of culture, but 30 μL of a solution containing 50 μg/mL BMP4 (R&D Systems Inc.) was added on the 4th day of culture so that the final concentration of BMP4 in the medium was to be 50 ng/mL. In a case where BMP4 was added to Example 2 and subsequent Examples, the same concentration was used. After the start of culture, the addition of BMP4 was continued until the 18th day of culture while exchanging half of the medium every 3 to 4 days, and thereafter, only the medium was exchanged without adding BMP4. Cell aggregates (spheroids) were formed by the 4th day of culture (FIG. 1). The stirring culture was continued in a spinner flask throughout the culture period. Although the hCG production was not confirmed until the 11th day of culture, the hCG production was confirmed after the 15th day of culture, and it was confirmed that the hCG production was continued even after the 60th day of culture (Table 2).
30 mL of an iPS cell medium (StemFit (registered trade name) AK02N: Ajinomoto Co., Inc.) was dispensed into a 30 mL volume spinner flask (ABLE Corporation), and then iPS cells (1.1×10^7 cells/bottle) were seeded. The comparison was carried out between the level 1 in which BMP4 was not added at the start of culture but added on the 4th day of culture and the level 2 in which BMVP was added from the start of culture. BMP4 was added so that the concentration in the medium was 50 ng/mL in both the level 1 and the level 2. After the start of culture, half of the medium was exchanged every 3 to 4 days, and after the 18th day of culture, the medium was exchanged for both the level 1 and the level 2 with a medium to which BMP4 had not been added. By the 4th day of culture, cell aggregates (spheroids) were formed. Regarding the level 1 and the level 2, stirring culture was continued in a spinner flask from the initial stage of culture, and the hCG production was checked. In a case where BMP4 is added from the start of culture (the level 2), the hCG production is started earlier; however, the hCG production also stops earlier. On the other hand, in a case where BMP4 is added after the 4th day of culture (the level 1), the hCG production is slightly delayed; however, it continued for a long time.

The values that follow come from US20220154138A1, “METHOD OF PRODUCING PLACENTA-LIKE ORGANOID, PLACENTA-LIKE ORGANOID, AND PRODUCTION OR TEST KIT” (FUJIFILM Corporation, priority 2020, published 2022).

B1: BMP4: bone morphogenetic protein BMP4 (R&D Systems Inc.), added to iPS cell medium at 50 ng/mL to induce differentiation (protein, UniProt P12644 293-408, looked up)
Bone morphogenetic protein 4: SPKHHSQRARKKNKNCRRHSLYVDFSDVGWNDWIVAPPGYQAFYCHGDCPFPLADHLNSTNHAIVQTLVNSVNSSIPKACCVPTELSAISMLYLDEYDKVVLKNYQEMVVEGCGCR
Turning to B1, the hCG production result by setting is: (BMP4 50 ng/mL day 4 to 18, day 15) “+ (a line equal to or more blue-colored than the control line was visually observed on the determination line, it was judged as positive (+))”; (BMP4 50 ng/mL day 4 to 18, day 39) “+ (a line equal to or more blue-colored than the control line was visually observed on the determination line, it was judged as positive (+))”; (BMP4 50 ng/mL day 4 to 18, day 53) “+ (a line equal to or more blue-colored than the control line was visually observed on the determination line, it was judged as positive (+))”; (BMP4 50 ng/mL day 4 to 18, day 67) “+ (a line equal to or more blue-colored than the control line was visually observed on the determination line, it was judged as positive (+))”. Moreover, the HCG production result (level 1: BMP4 50 ng/mL added from day 4, spinner flask, day 8) was “− (the line was not visually observed on the determination line, it was determined to be negative (−))”; the HCG production result (level 1: BMP4 added from day 4, day 11) is “− (the line was not visually observed on the determination line, it was determined to be negative (−))”; the HCG production entry (level 1: BMP4 added from day 4, day 14) is on record as “+/− (a line that was less blue-colored than the control line but was visible was visually observed on the determination line, it was determined to be (+/−))”; the HCG production entry (level 1: BMP4 added from day 4, day 18) is reported as “+ (a line equal to or more blue-colored than the control line was visually observed on the determination line, it was judged as positive (+))”; the HCG production entry (level 1: BMP4 added from day 4, day 21) is reported as “+ (a line equal to or more blue-colored than the control line was visually observed on the determination line, it was judged as positive (+))”; the HCG production result (level 1: BMP4 added from day 4, day 25) was “+ (a line equal to or more blue-colored than the control line was visually observed on the determination line, it was judged as positive (+))”. In addition, the HCG production entry (level 1: BMP4 added from day 4, day 28) was “+ (a line equal to or more blue-colored than the control line was visually observed on the determination line, it was judged as positive (+))”; the HCG production result (level 1: BMP4 added from day 4, day 32) is listed as “+ (a line equal to or more blue-colored than the control line was visually observed on the determination line, it was judged as positive (+))”; the HCG production entry (level 2: BMP4 50 ng/mL added from start of culture, spinner flask, day 8) is on record as “+ (a line equal to or more blue-colored than the control line was visually observed on the determination line, it was judged as positive (+))”; the HCG production result (level 2: BMP4 added from start of culture, day 11) was “+ (a line equal to or more blue-colored than the control line was visually observed on the determination line, it was judged as positive (+))”; the HCG production result (level 2: BMP4 added from start of culture, day 14) is given as “+ (a line equal to or more blue-colored than the control line was visually observed on the determination line, it was judged as positive (+))”; the HCG production result (level 2: BMP4 added from start of culture, day 18) is reported as “+ (a line equal to or more blue-colored than the control line was visually observed on the determination line, it was judged as positive (+))”. Besides, the HCG production result is “+ (a line equal to or more blue-colored than the control line was visually observed on the determination line, it was judged as positive (+))” (level 2: BMP4 added from start of culture, day 21); “+/− (a line that was less blue-colored than the control line but was visible was visually observed on the determination line, it was determined to be (+/−))” (level 2: BMP4 added from start of culture, day 25); “− (the line was not visually observed on the determination line, it was determined to be negative (−))” (level 2: BMP4 added from start of culture, day 28); “− (the line was not visually observed on the determination line, it was determined to be negative (−))” (level 2: BMP4 added from start of culture, day 32).
